Experimental data reported in article PMC5159498, “IQGAP1 Interaction with RHO Family Proteins Revisited” (The Journal of Biological Chemistry, 2016).
Positions count from the first letter of the chain named.

Assays:
Assay in all cases: fluorescence polarisation; IQGAP1 variant titrated to mGppNHp-bound RHO protein (1 μM); equilibrium Kd (eKd), quadratic fit; 30 mM Tris/HCl pH 7.5, 150 mM NaCl, 5 mM MgCl2, 3 mM DTT, 25 °C
Settings in all cases: both partners purified
[1] = target: T1, IQGAP1 GRD1-RGCT wild type (aa 877-1558) (human, UniProt P46940 877-1558)
T1 construct: human IQGAP1, GRD and RGCT domains, lacks the last 99 amino acids, aa 877-1558; also called GRD1-RGCT^WT; IQGAP1^877-1558
T1 sequence (looked up): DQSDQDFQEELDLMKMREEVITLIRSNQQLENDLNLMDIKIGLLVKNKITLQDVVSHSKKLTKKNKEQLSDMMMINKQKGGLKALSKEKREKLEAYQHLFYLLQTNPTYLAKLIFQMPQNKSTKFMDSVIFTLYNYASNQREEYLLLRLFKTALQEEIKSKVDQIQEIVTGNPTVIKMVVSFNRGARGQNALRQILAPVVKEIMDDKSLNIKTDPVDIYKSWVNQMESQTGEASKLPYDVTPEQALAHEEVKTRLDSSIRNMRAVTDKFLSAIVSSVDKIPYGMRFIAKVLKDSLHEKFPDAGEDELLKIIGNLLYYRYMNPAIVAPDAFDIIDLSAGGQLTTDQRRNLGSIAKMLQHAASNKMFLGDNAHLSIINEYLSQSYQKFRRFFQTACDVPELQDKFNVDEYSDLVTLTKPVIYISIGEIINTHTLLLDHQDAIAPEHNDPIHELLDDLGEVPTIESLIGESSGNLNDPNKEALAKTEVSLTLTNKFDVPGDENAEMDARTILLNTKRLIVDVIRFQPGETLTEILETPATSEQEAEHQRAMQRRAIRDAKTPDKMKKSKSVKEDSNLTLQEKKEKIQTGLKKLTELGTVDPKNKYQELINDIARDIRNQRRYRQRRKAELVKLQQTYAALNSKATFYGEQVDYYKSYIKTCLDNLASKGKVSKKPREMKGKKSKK

[2] = target: T2, IQGAP1 GRD1-CT (aa 863-1657) (human, UniProt P46940 863-1657)
T2 construct: human IQGAP1, GRD, RGCT and CT domains, aa 863-1657; The GST tag was cleaved 'if needed'; also called C-terminal half of IQGAP1; C-terminal 795 amino acids of IQGAP1
T2 sequence (looked up): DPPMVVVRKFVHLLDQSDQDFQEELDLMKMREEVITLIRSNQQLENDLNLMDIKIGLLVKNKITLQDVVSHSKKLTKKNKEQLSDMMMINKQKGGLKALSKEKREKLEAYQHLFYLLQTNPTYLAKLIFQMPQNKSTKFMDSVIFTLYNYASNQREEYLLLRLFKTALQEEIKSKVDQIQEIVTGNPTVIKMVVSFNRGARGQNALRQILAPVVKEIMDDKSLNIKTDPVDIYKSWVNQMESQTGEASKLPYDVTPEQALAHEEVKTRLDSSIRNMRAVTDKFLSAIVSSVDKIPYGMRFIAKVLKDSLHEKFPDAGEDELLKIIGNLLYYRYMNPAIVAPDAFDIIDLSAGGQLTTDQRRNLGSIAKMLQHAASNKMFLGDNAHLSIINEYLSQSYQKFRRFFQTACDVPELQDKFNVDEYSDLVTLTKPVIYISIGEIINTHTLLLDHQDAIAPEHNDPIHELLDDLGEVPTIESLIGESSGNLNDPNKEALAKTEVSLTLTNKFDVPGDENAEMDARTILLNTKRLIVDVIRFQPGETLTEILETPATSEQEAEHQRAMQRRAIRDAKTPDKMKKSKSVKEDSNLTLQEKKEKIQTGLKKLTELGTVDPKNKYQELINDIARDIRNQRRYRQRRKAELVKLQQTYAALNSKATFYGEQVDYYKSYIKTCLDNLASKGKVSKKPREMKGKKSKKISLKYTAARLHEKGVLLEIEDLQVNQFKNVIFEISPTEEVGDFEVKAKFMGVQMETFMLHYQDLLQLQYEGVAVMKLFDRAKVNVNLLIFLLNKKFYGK

[3] = target: T3, IQGAP1 GRD1-RGCT S1443E (aa 877-1558) (human, UniProt P46940 877-1558, S1443E)
T3 construct: human IQGAP1 aa 877-1558 with the phosphomimetic mutation S1443E (printed as S1143E in the methods, S1443E everywhere else), from the vector pET46 EkLIC; source: E. coli (pLysS BL21(DE3), CodonPlusRIL or BL21(Rosetta)), purified (Ni-NTA, gel filtration)
T3 sequence (looked up): T1 sequence (looked up) with S567E

B1: CDC42 (aa 1-178) (domain or fragment)
chain: not shown
notes: human CDC42, C-terminally truncated, aa 1-178; Loaded non-covalently with mGppNHp, tGppNHp, mGDP or non-fluorescent GppNHp; the nucleotide is named in the format of each assay; also called CDC42^WT; CDC42-mGppNHp
Kd [1]: 4.6 µM | Kd [2]: 3.4 µM | Kd [3]: 16.3 µM
